Measurements reported in patent US7410774B1, “Compounds modulating sister chromatid separation and method for identifying same” (Boehringer Ingelheim International GmbH, priority 1999, dated 2008).

T1: Scc1p tagged with multiple HA epitopes, chromatin-bound (chromatin of nocodazole-arrested yeast), Q12158
T1 chain: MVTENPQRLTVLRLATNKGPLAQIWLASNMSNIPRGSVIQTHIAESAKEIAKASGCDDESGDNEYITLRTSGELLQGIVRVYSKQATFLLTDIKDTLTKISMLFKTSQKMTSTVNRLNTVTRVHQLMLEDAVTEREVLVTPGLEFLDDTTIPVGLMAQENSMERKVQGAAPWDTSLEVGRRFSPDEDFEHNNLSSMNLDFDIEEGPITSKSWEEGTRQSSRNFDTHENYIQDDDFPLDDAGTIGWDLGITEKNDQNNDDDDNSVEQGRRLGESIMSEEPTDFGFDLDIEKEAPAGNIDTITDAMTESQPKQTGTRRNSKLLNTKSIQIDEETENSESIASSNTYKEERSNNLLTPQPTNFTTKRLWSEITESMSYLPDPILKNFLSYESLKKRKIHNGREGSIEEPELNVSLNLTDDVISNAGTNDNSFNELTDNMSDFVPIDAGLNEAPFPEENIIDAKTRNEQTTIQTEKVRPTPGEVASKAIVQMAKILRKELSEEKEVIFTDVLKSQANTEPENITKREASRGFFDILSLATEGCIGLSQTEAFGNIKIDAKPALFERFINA

B1: Esp1 mutant C1531A tagged with a FLAG epitope, overexpressed in yeast (protein)
chain: MMVKQEEPLNEISPNTPMTSKSYLLNDTLSKVHHSGQTRPLTSVLSGDASSNSIGILAMHNNIIRDFTKIASNNIDLAIEDITTVDHSLNSIYSLLKSHHMWGHINSTVKQHLMIIVKLINNNALGLASSEIIFLFNETNLFQAHSLKNILLADFSTWNDYYLSNLKILALQIILKRKLVDEYLPHILELFSHDKRYLLKDPNLKAHALTKIVLSFFSVTTSCKVLFGLKFLQYIKQFKLPFKKFISNITVECFSKNLLHKNYLEMGPNKIYLNSFYLSYSMLYDGLDKIMLLDILSYEETTEVQRAIKSKKEFNEYCNMSENRLLWSCISVDDLNVILENATNFLQNKGKHISATLKCLVCLWSTIRLEGLPKNKDILRQFDCTVIYINSNIKSINDESAAALLSELLGVLSEICIDYKEPKRLSNIISVLFNASVLFKSHSFLLKTANLEISNVLISNDSKTSHRTILKFEKFISSAQSAQKKIEIFSCLFNVYCMLRNDTLSFVFDFCQNAFIHCFTRLKITKFIEFSNSSEIMLSVLYGNSSIENIPSENWSQLSRMIFCSLRGIFDLDPLELNNTFDKLHLLNKYELLIRIVYLLNLDMSKHLTTNLSKITKLYINKWLQKSDEKAERISSFEMDFVKMLLCYLNFNNFDKLSIELSLCIKSKEKYYSSIVPYADNYLLEAYLSLYMIDDALMMKNQLQKTMNLSTAKIEQALLHASSLINVHLWDSDLTAFQIYFGKTLPAMKPELFDINNDHNLPMSLYIKVILLNIKIFNESAKLNIKAGNVISAVIDCRKAQNLALSLLKKKNKLSQGSRLALLKSLSFSFFQLIKIHIRIGSARDCEFYSKELSRIISDLEEPIIVYRCLHFLHRYYMITEQTCLQNITLGKANKAFDYLDAEADITSLTMFLYDNKEFVKLEQSLVLYFGDQLEKTFLPNLWKLHLGKDIDDSICLSEYMPKNVINRVHNMWQKVMSQLEEDPFFKGMFESTLGIPSSLPVIPSTMPNNILKTPSKHSTGLKLCDSPRSSSMTPRGKNIRQKFDRIAAISKLKQMKELLESLKLDTLDNHELSKISSLSSLTLTILSNITSIHNAESSLITNFSLTDLPRHMPLLFDKVLNNIDNKNYREFRVSSLIAPNNISTITESIRVSAAQKDLMESNLNINVITIDFCPITGNLLLSKLEPRRKRRTHLRLPLIRSNSRDLDEVHLSFPEATKKLLSIINESNQTTSVEVTNKIKTREERKSWWTTRYDLDKRMQQLLNNIENSWFNGVQGFFSPEVVDNSLFEKFKDKFYEILHQNLPSRKLYGNPAMFIKVEDWVIELFLKLNPQEIDFLSKMEDLIYFVLDILLFHGEENAYDEIDFSMLHVQLEEQIKKYRATMTTNSIFHTFLVVSSSCHLFPWECLSFLKDLSITRVPSYVCLNKLLSRFHYQLPLQVTIEDNISMILNPNGDLSRTESKFKGMFQKIIDAKPSSQLVMNEKPEEETLLKMLQNSNLFVYIGHGGGEQYVRSKEIKKCTKIAPSFLLGASSAAMKYYGKLEPTGTIYTYLLGGCPMVLGNLWDVTDKDIDKFSEELFEKMGFRCNTDDLNGNSLSVSYAVSKSRGVCHLRYLNGAAPVIYGLPIKFVS
B2: Wildtype Esp1 tagged with a FLAG epitope, overexpressed in yeast (protein)
chain: MMVKQEEPLNEISPNTPMTSKSYLLNDTLSKVHHSGQTRPLTSVLSGDASSNSIGILAMHNNIIRDFTKIASNNIDLAIEDITTVDHSLNSIYSLLKSHHMWGHINSTVKQHLMIIVKLINNNALGLASSEIIFLFNETNLFQAHSLKNILLADFSTWNDYYLSNLKILALQIILKRKLVDEYLPHILELFSHDKRYLLKDPNLKAHALTKIVLSFFSVTTSCKVLFGLKFLQYIKQFKLPFKKFISNITVECFSKNLLHKNYLEMGPNKIYLNSFYLSYSMLYDGLDKIMLLDILSYEETTEVQRAIKSKKEFNEYCNMSENRLLWSCISVDDLNVILENATNFLQNKGKHISATLKCLVCLWSTIRLEGLPKNKDILRQFDCTVIYINSNIKSINDESAAALLSELLGVLSEICIDYKEPKRLSNIISVLFNASVLFKSHSFLLKTANLEISNVLISNDSKTSHRTILKFEKFISSAQSAQKKIEIFSCLFNVYCMLRNDTLSFVFDFCQNAFIHCFTRLKITKFIEFSNSSEIMLSVLYGNSSIENIPSENWSQLSRMIFCSLRGIFDLDPLELNNTFDKLHLLNKYELLIRIVYLLNLDMSKHLTTNLSKITKLYINKWLQKSDEKAERISSFEMDFVKMLLCYLNFNNFDKLSIELSLCIKSKEKYYSSIVPYADNYLLEAYLSLYMIDDALMMKNQLQKTMNLSTAKIEQALLHASSLINVHLWDSDLTAFQIYFGKTLPAMKPELFDINNDHNLPMSLYIKVILLNIKIFNESAKLNIKAGNVISAVIDCRKAQNLALSLLKKKNKLSQGSRLALLKSLSFSFFQLIKIHIRIGSARDCEFYSKELSRIISDLEEPIIVYRCLHFLHRYYMITEQTCLQNITLGKANKAFDYLDAEADITSLTMFLYDNKEFVKLEQSLVLYFGDQLEKTFLPNLWKLHLGKDIDDSICLSEYMPKNVINRVHNMWQKVMSQLEEDPFFKGMFESTLGIPSSLPVIPSTMPNNILKTPSKHSTGLKLCDSPRSSSMTPRGKNIRQKFDRIAAISKLKQMKELLESLKLDTLDNHELSKISSLSSLTLTILSNITSIHNAESSLITNFSLTDLPRHMPLLFDKVLNNIDNKNYREFRVSSLIAPNNISTITESIRVSAAQKDLMESNLNINVITIDFCPITGNLLLSKLEPRRKRRTHLRLPLIRSNSRDLDEVHLSFPEATKKLLSIINESNQTTSVEVTNKIKTREERKSWWTTRYDLDKRMQQLLNNIENSWFNGVQGFFSPEVVDNSLFEKFKDKFYEILHQNLPSRKLYGNPAMFIKVEDWVIELFLKLNPQEIDFLSKMEDLIYFVLDILLFHGEENAYDEIDFSMLHVQLEEQIKKYRATMTTNSIFHTFLVVSSSCHLFPWECLSFLKDLSITRVPSYVCLNKLLSRFHYQLPLQVTIEDNISMILNPNGDLSRTESKFKGMFQKIIDAKPSSQLVMNEKPEEETLLKMLQNSNLFVYIGHGGGEQYVRSKEIKKCTKIAPSFLLGCSSAAMKYYGKLEPTGTIYTYLLGGCPMVLGNLWDVTDKDIDKFSEELFEKMGFRCNTDDLNGNSLSVSYAVSKSRGVCHLRYLNGAAPVIYGLPIKFVS
B3: Esp1 mutant H1505A tagged with a FLAG epitope, overexpressed in yeast (protein)
chain: MMVKQEEPLNEISPNTPMTSKSYLLNDTLSKVHHSGQTRPLTSVLSGDASSNSIGILAMHNNIIRDFTKIASNNIDLAIEDITTVDHSLNSIYSLLKSHHMWGHINSTVKQHLMIIVKLINNNALGLASSEIIFLFNETNLFQAHSLKNILLADFSTWNDYYLSNLKILALQIILKRKLVDEYLPHILELFSHDKRYLLKDPNLKAHALTKIVLSFFSVTTSCKVLFGLKFLQYIKQFKLPFKKFISNITVECFSKNLLHKNYLEMGPNKIYLNSFYLSYSMLYDGLDKIMLLDILSYEETTEVQRAIKSKKEFNEYCNMSENRLLWSCISVDDLNVILENATNFLQNKGKHISATLKCLVCLWSTIRLEGLPKNKDILRQFDCTVIYINSNIKSINDESAAALLSELLGVLSEICIDYKEPKRLSNIISVLFNASVLFKSHSFLLKTANLEISNVLISNDSKTSHRTILKFEKFISSAQSAQKKIEIFSCLFNVYCMLRNDTLSFVFDFCQNAFIHCFTRLKITKFIEFSNSSEIMLSVLYGNSSIENIPSENWSQLSRMIFCSLRGIFDLDPLELNNTFDKLHLLNKYELLIRIVYLLNLDMSKHLTTNLSKITKLYINKWLQKSDEKAERISSFEMDFVKMLLCYLNFNNFDKLSIELSLCIKSKEKYYSSIVPYADNYLLEAYLSLYMIDDALMMKNQLQKTMNLSTAKIEQALLHASSLINVHLWDSDLTAFQIYFGKTLPAMKPELFDINNDHNLPMSLYIKVILLNIKIFNESAKLNIKAGNVISAVIDCRKAQNLALSLLKKKNKLSQGSRLALLKSLSFSFFQLIKIHIRIGSARDCEFYSKELSRIISDLEEPIIVYRCLHFLHRYYMITEQTCLQNITLGKANKAFDYLDAEADITSLTMFLYDNKEFVKLEQSLVLYFGDQLEKTFLPNLWKLHLGKDIDDSICLSEYMPKNVINRVHNMWQKVMSQLEEDPFFKGMFESTLGIPSSLPVIPSTMPNNILKTPSKHSTGLKLCDSPRSSSMTPRGKNIRQKFDRIAAISKLKQMKELLESLKLDTLDNHELSKISSLSSLTLTILSNITSIHNAESSLITNFSLTDLPRHMPLLFDKVLNNIDNKNYREFRVSSLIAPNNISTITESIRVSAAQKDLMESNLNINVITIDFCPITGNLLLSKLEPRRKRRTHLRLPLIRSNSRDLDEVHLSFPEATKKLLSIINESNQTTSVEVTNKIKTREERKSWWTTRYDLDKRMQQLLNNIENSWFNGVQGFFSPEVVDNSLFEKFKDKFYEILHQNLPSRKLYGNPAMFIKVEDWVIELFLKLNPQEIDFLSKMEDLIYFVLDILLFHGEENAYDEIDFSMLHVQLEEQIKKYRATMTTNSIFHTFLVVSSSCHLFPWECLSFLKDLSITRVPSYVCLNKLLSRFHYQLPLQVTIEDNISMILNPNGDLSRTESKFKGMFQKIIDAKPSSQLVMNEKPEEETLLKMLQNSNLFVYIGAGGGEQYVRSKEIKKCTKIAPSFLLGCSSAAMKYYGKLEPTGTIYTYLLGGCPMVLGNLWDVTDKDIDKFSEELFEKMGFRCNTDDLNGNSLSVSYAVSKSRGVCHLRYLNGAAPVIYGLPIKFVS

How the values were obtained:
Esp1 = target: T2, Esp1 (Saccharomyces cerevisiae, UniProt Q03018); assay: In vitro assay for yeast Esp1p activity (Esp1-dependent Scc1p cleavage); format: biochemical; conditions: yeast chromatin incubated with extract over-producing Esp1; Western blot
T2 construct: made in house; host or cells: S. cerevisiae W303 derivative overexpressing Esp1p from the GAL1-10 promoter; soluble cell extract, not purified
Protocol: A crude Triton X-100 insoluble chromatin preparation was obtained from yeast cells as described (Liang and Stillman, 1997). The pelleted chromatin was resuspended in yeast cell extracts that had been prepared similar to the supernatant fraction of the chromatin preparation. One tenth volume of an ATP regenerating system was added (50 mM HEPES/KOH pH-7.5, 100 mM KCl, 10 mM MgCl2, 10 mM ATP, 600 mM creatin phosphate, 1.5 mg/ml phophocreatin kinase, 1 mM DTT, 10% glycerol). Reactions were incubated for 10 min at 25° C. with shaking and stopped on ice. The chromatin fraction was separated again from the supernatant by centrifugation, and resuspended in buffer EBX (Liang and Stillman, 1997). Equivalent aliquots of supernatant and chromatin pellet were analysed by SDS-PAGE and Western blotting. Scc1-HA was detected with the anti-HA monoclonal antibody 16B12 (Boehringer Mannheim). […]
Chromatin was prepared from a strain containing Scc1p tagged with HA epitopes that was arrested in metaphase with nocodazol. The proteins in the chromatin preparation were resolved by SDS-PAGE and Scc1-HA was detected by western blotting (FIG. 2, lane 1). […] Aliquots of the supernatant fraction and the chromatin fraction of each reaction were analysed.

[1] = target: T1, Scc1p tagged with multiple HA epitopes, …

Molecule	Esp1-dependent in vitro cleavage of Scc1p (Esp1)	Scc1 cleavage activity in yeast extracts [1]
CCN1C(=O)C=CC1=O [N-ethyl maleimide]	inhibited	
B1		Both mutations completely abolished the proteolytic activity in yeast extracts after overproduction of the proteins
B2		Wild type Esp1 overexpressed to a similar level caused complete cleavage of the Scc1 substrate
B3		Both mutations completely abolished the proteolytic activity in yeast extracts after overproduction of the proteins
